In patent US20230381130A1 (ATRECA, published 2023):
Positions count from the first letter of the chain named.

T1: human FcγRIIa-H (the high-affinity H131 variant) (human, UniProt P12318 34-317)
T1 sequence (looked up): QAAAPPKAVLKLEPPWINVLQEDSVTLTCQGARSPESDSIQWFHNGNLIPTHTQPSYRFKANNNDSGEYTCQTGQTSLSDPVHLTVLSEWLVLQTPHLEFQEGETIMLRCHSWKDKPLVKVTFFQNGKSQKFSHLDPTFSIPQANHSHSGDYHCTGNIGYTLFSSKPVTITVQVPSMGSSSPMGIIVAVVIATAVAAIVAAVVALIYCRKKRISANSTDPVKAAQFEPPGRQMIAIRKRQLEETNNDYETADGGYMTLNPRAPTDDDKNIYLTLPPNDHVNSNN

B1: AIP-169752 (antibody, V domains shown)
VH: EVQLVESGGALVKPGGSLRLSCAASGFTFSKAWMSWVRQAPGKGLEWVGRIKSVTDGETTDYAAPVKGRFTISRDDSKSTLYLQMNSLKTEDTAVYYCTSSFCCRGGGSCPSHDTSYCGGQYKSYYYMDVWGKGTTVTVSS
VL: QSVLTQPPSASGTPGQRVTISCSGSSSNIGSSSVSWYQQLPGTAPKLLIYKNNQRPSGVPDRFSGSKSGTSASLAISGLRSEDEADYYCSTWDDSLSVRVFGGGTKLTVL
B2: AIP-182606 (antibody, V domains shown)
VH: EVQLVESGGALVKPGGSLRLSCAASGFTFSKAWMSWVRQAPGKGLEWVGRIKSVTDGETTDYAAPVKGRFTISRDDSKSTLYLQMNSLKTEDTAVYYCTSSFSCRGGSCPSHDTSYGGQYKSYYYMDVWGKGTTVTVSS
VL: B1 VL
B3: AIP-114111 (antibody, V domains shown)
VH: EVQLVESGGALVKPGGSLRLSCAASGFTFSKAWMSWVRQAPGKGLEWVGRIKSVTDGETTDYAAPVKGRFTISRDDSKSTLYLQMNSLKTEDTAVYYCTSSFCCRGGSCPSHDTSYCGGQYKSSYYYMDVWGKGTTVTVSS
VL: B1 VL
B4: AIP-185680 (antibody, V domains shown)
VH: EVQLVESGGALVKPGGSLRLSCAASGFTFSKAWMSWVRQAPGKGLEWVGRIKSVTDGETTDYAAPVKGRFTISRDDSKSTLYLQMNSLKTEDTAVYYCTSSFCCRGGGGSCPSHDTSYCGGQYKSYYYMDVWGKGTTVTVSS
VL: B1 VL
B5: AIP-107388 (antibody, V domains shown)
VH: B3 VH with Q120G, Y121Q, K122Y, S123K
VL: B1 VL
B6: AIP-131762 (antibody, V domains shown)
VH: EVQLVESGGALVKPGGSLRLSCAASGFTFSKAWMSWVRQAPGKGLEWVGRIKSVTDGETTDYAAPVKGRFTISRDDSKSTLYLQMNSLKTEDTAVYYCTSSFCGGPSHDTSYCGGQYKSYYYMDVWGKGTTVTVSS
VL: B1 VL
B7: AIP-194564 (antibody, V domains shown)
VH: B1 VH with G106S
VL: B1 VL
B8: AIP-145328 (antibody, V domains shown)
VH: EVQLVESGGALVKPGGSLRLSCAASGFTFSKAWMSWVRQAPGKGLEWVGRIKSVTDGETTDYAAPVKGRFTISRDDSKSTLYLQMNSLKTEDTAVYYCTSSFCCRGGSGGSCPSHDTSYCGGQYKSYYYMDVWGKGTTVTVSS
VL: B1 VL
B9: AIP-163723 (antibody, V domains shown)
VH: B2 VH with S103C, G117C, Q119G, Y120Q
VL: B1 VL
B10: AIP-167295 (antibody, V domains shown)
VH: B2 VH with S103C, G117C, Q119G, Y120Q, K121Y
VL: B1 VL
B11: AIP-191692 (antibody, V domains shown)
VH: EVQLVESGGALVKPGGSLRLSCAASGFTFSKAWMSWVRQAPGKGLEWVGRIKSVTDGETTDYAAPVKGRFTISRDDSKSTLYLQMNSLKTEDTAVYYCTSSFCCRGGSCPSHDTSYCGGGSGYKSYYYMDVWGKGTTVTVSS
VL: B1 VL
B12: AIP-125646 (antibody, V domains shown)
VH: B2 VH with S103C, G117C
VL: B1 VL

Molecular target: T1, human FcγRIIa-H (the high-affinity H131 …)
Experiment: cell-based or functional assay

Row | Binder | Avg ΔActivity Rank | EC50 | Fold ΔActivity
1 | B1 | 2 |  | 
2 | B2 | 2 |  | 
3 | B3 | 2 | 258 nM | 0.55
4 | B4 | 1 |  | 
5 | B5 | 2 |  | 
6 | B6 | 1 |  | 
7 | B7 | 2 | 472 nM | 0.58
8 | B8 | 2 |  | 
9 | B9 | 2 |  | 
10 | B10 | 2 |  | 
11 | B11 | 2 |  | 
12 | B12 | 2.5 | 446 nM | 0.75
